Target: T1, AtGL3 (F177I) (Arabidopsis thaliana, UniProt Q9FN69 1-637, F177I)
T1 sequence: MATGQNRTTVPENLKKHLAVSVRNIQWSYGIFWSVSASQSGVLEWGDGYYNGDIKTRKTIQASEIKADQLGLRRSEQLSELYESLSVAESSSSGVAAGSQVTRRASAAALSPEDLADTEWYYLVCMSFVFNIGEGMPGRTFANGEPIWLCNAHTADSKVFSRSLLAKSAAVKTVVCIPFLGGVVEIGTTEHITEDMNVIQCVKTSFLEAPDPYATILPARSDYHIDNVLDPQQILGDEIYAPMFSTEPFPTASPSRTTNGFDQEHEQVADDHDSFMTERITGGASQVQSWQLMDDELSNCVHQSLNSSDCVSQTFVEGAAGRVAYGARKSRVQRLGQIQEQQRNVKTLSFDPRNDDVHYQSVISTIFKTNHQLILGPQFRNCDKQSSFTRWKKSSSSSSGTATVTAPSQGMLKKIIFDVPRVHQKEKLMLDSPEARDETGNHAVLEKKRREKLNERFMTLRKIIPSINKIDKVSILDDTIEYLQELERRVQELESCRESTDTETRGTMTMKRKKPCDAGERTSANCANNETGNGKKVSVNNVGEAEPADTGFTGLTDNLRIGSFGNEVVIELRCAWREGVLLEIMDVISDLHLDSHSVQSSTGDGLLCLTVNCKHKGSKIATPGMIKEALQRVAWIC
Test: pull-down

B1: AtTT2 (natural protein)
chain: MGKRATTSVRREELNRGAWTDHEDKILRDYITTHGEGKWSTLPNQAGLKRCGKSCRLRWKNYLRPGIKRGNISSDEEELIIRLHNLLGNRWSLIAGRLPGRTDNEIKNHWNSNLRKRLPKTQTKQPKRIKHSTNNENNVCVIRTKAIRCSKTLLFSDLSLQKKSSTSPLPLKEQEMDQGGSSLMGDLEFDFDRIHSEFHFPDLMDFDGLDCGNVTSLVSSNEILGELVPAQGNLDLNRPFTSCHHRGDDEDWLRDFTC
- percent reduction of binding against wild-type AtGL3: 30%

B2: AtMYB61 (natural protein)
chain: not shown
- percent reduction of binding against wild-type AtGL3: 30%

B3: AtGL1 (natural protein)
chain: MRIRRRDEKENQEYKKGLWTVEEDNILMDYVLNHGTGQWNRIVRKTGLKRCGKSCRLRWMNYLSPNVNKGNFTEQEEDLIIRLHKLLGNRWSLIAKRVPGRTDNQVKNYWNTHLSKKLVGDYSSAVKTTGEDDDSPPSLFITAATPSSCHHQQENIYENIAKSFNGVVSASYEDKPKQELAQKDVLMATTNDPSHYYGNNALWVHDDDFELSSLVMMNFASGDVEYCL
- percent reduction of binding against wild-type AtGL3: 30%

B4: AtWER (natural protein)
chain: MRKKVSSSGDEGNNEYKKGLWTVEEDKILMDYVKAHGKGHWNRIAKKTGLKRCGKSCRLRWMNYLSPNVKRGNFTEQEEDLIIRLHKLLGNRWSLIAKRVPGRTDNQVKNYWNTHLSKKLGIKDQKTKQSNGDIVYQINLPNPTETSEETKISNIVDNNNILGDEIQEDHQGSNYLSSLWVHEDEFELSTLTNMMDFIDGHCF
- percent reduction of binding against wild-type AtGL3: 30%

B5: AtPAP2 (natural protein)
chain: MEGSSKGLRKGAWTAEEDSLLRLCIDKYGEGKWHQVPLRAGLNRCRKSCRLRWLNYLKPSIKRGRLSNDEVDLLLRLHKLLGNRWSLIAGRLPGRTANDVKNYWNTHLSKKHESSCCKSKMKKKNIISPPTTPVQKIGVFKPRPRSFSVNNGCSHLNGLPEVDLIPSCLGLKKNNVCENSITCNKDDEKDDFVNNLMNGDNMWLENLLGENQEADAIVPEATTAEHGATLAFDVEQLWSLFDGETVELD
- percent reduction of binding against wild-type AtGL3: 30%

B6: AtPAP1 (natural protein)
chain: MEGSSKGLRKGAWTTEEDSLLRQCINKYGEGKWHQVPVRAGLNRCRKSCRLRWLNYLKPSIKRGKLSSDEVDLLLRLHRLLGNRWSLIAGRLPGRTANDVKNYWNTHLSKKHEPCCKIKMKKRDITPIPTTPALKNNVYKPRPRSFTVNNDCNHLNAPPKVDVNPPCLGLNINNVCDNSIIYNKDKKKDQLVNNLIDGDNMWLEKFLEESQEVDILVPEATTTEKGDTLAFDVDQLWSLFDGETVKFD
- percent reduction of binding against wild-type AtGL3: 30%

— publication PMC6598095 (Journal of Experimental Botany, 2019)
